According to paper PMC10415143:

How the values were obtained:
[1] = target: Full length ALPH1 (amino acid 1-734), recombinant (T. brucei); experiment: SEC-MALS; 100 µl injected at 5 mg/ml on Superdex 200 Increase 10/300 GL, 15°C, 0.4 ml/min, PBS buffer
[2] = target: ALPH1ΔN (amino acids 222-734), recombinant (T. brucei); experiment: as above

stoichiometry N [1] | Substance | stoichiometry N [2]
2 | Full length ALPH1 (amino acid 1-734), recombinant (enzyme) | –
– | ALPH1ΔN (amino acids 222-734), recombinant (domain or fragment) | 2
